Several values for one entry are separate records, joined by “and”; a condition that tells them apart may be missing. Equal entries are not always repeated.
T1: rat DPEP3 ECD with histidine tag (rat, UniProt Q5U2X4 36-459, limits assumed)
T1 construct: also called rDPEP3-His; ratDPEP3-His; not shown: histidine tag
T1 sequence: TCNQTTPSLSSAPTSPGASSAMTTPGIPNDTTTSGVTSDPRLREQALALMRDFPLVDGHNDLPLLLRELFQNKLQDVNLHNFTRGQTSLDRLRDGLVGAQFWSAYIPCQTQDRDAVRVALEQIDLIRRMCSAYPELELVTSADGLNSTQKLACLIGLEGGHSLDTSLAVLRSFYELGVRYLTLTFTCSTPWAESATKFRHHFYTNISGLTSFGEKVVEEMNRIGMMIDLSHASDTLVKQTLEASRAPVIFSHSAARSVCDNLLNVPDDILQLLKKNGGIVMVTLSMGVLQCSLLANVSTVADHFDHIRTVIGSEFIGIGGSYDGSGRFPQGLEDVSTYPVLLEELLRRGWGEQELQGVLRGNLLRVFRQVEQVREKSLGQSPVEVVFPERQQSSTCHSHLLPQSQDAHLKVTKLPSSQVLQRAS

T2: hDPEP1-His (human, UniProt P16444 17-385, limits assumed)
T2 construct: Neither the origin nor the limits of this protein are described; not shown: histidine tag
T2 sequence (looked up): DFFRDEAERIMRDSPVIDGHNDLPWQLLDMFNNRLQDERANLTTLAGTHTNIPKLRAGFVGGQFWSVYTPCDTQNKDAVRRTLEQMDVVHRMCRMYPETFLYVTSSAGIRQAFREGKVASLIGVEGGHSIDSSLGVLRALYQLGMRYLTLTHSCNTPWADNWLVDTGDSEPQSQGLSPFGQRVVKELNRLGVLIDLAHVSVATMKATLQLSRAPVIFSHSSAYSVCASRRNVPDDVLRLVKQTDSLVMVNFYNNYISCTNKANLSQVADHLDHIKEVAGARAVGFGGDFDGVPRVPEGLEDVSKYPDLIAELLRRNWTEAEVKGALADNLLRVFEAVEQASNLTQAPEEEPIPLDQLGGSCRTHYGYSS

T3: hDPEP3-ECD-His (human, UniProt Q9H4B8 36-463)
T3 construct: also called hDPEP3-His; monomeric hDPEP3-His antigen; not shown: histidine tag
T3 sequence: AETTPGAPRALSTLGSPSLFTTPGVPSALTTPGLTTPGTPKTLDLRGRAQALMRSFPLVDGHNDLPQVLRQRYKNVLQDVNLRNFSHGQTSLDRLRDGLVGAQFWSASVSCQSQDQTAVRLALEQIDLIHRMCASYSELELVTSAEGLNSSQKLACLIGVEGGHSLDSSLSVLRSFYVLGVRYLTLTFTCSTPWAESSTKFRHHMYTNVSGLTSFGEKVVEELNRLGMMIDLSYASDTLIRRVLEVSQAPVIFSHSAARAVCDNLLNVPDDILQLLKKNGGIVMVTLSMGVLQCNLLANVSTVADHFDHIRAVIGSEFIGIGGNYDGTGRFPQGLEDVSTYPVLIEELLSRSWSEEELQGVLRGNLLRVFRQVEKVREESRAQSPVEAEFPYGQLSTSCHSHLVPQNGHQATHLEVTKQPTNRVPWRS

T4: mDPEP3 (limits assumed)
T4 construct: also called mouse DPEP3-His; mouse DPEP3 ECD with histidine tag
T4 single chain: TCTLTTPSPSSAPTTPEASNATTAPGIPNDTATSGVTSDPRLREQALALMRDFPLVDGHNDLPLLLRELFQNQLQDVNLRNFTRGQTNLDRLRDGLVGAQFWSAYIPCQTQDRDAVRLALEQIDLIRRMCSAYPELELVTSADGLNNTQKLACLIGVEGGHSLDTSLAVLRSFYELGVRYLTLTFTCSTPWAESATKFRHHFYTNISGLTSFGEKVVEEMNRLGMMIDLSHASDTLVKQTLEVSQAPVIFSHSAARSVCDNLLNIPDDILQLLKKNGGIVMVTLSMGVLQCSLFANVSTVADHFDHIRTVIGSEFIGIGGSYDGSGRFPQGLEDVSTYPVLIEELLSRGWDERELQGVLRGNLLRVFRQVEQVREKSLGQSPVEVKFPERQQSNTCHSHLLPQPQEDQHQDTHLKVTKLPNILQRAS

T5: cDPEP3 (Macaca fascicularis, UniProt Q4R7M2)
T5 construct: extracellular domain; also called cynomolgus DPEP3-His; cynomolgus DPEP3 ECD with histidine tag
T5 sequence (single chain, looked up): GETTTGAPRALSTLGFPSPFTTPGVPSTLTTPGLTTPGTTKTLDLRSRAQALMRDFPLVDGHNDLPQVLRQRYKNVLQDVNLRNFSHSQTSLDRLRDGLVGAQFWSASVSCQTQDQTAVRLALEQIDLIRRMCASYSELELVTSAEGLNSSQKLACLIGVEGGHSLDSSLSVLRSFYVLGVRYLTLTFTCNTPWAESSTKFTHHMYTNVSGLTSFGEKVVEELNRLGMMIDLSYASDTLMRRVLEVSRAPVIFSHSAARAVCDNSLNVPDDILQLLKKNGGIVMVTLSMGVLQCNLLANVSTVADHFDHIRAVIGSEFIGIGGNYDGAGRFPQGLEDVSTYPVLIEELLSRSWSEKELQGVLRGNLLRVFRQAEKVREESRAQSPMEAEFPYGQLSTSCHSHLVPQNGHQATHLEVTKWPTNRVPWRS


Assays:
[1] = biological target: T1, rat DPEP3 ECD with histidine tag; experiment: SPR, BIAcore 2000, antibody captured with anti-human capture kit
hDPEP1-His = biological target: T2, hDPEP1-His; experiment: as above
[2] = biological target: T6, hDPEP2 ECD with histidine tag (human, UniProt Q9H4A9 33-463); experiment: ELISA, coated antigen, antibody 1 ug/mL
T6 construct: also called hDPEP2-His; not shown: histidine tag
T6 sequence (Q9H4A9 33-463): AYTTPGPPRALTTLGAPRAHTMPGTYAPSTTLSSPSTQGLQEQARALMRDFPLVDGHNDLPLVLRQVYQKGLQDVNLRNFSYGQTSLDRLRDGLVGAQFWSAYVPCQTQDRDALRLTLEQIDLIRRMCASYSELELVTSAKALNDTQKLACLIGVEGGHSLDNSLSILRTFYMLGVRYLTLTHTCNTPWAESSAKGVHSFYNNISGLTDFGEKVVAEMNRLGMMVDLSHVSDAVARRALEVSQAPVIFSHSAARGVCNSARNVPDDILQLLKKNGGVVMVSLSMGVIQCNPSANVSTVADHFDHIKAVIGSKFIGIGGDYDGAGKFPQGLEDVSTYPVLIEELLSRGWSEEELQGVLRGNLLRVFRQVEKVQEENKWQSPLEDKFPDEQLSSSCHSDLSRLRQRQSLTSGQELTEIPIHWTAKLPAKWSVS
Description: The anti-DPEP3 antibodies were screened by ELISA for cross-reactivity with mouse, rat and cynomolgus DPEP3 and for cross reactivity to hDPEP2, the closest DPEP3 family member. ELISA was conducted as follows. Plates were coated with purified mouse, rat or cynomolgus DPEP3-His or hDPEP2-His at 0.3 μg/mL in 0.2 M carbonate-bicarbonate buffer, pH 9.4 overnight at 4° C. The protein solution was removed and the wells were blocked with 1% (w/v) BSA in PBS (PBSA), 100 μL/well for 1 hour at 37° C. Anti-DPEP3 antibody or a mouse isotype control antibody was then added at 1 μg/mL in 50 μL PBSA for 1 hour at room temperature. After washing with water, 50 μL/well HRP-labeled goat anti-mouse IgG antibody diluted 1:10,000 in PBSA was added for 30 min at room temperature. The plates were washed and developed by the addition of 40 μL/well of the TMB substrate solution (Thermo Scientific) at room temperature. An equal volume of 0.2 M H₂SO₄ was added to stop substrate development. The samples were then analyzed by spectrophotometer at OD 450. […] The cross reactivity results for exemplary DPEP3-specific antibodies can be seen in FIG. 4.

hDPEP3-ECD-His = biological target: T3, hDPEP3-ECD-His; experiment: BLI ForteBio RED, 200 nM hDPEP3-His, estimated grade
In short: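 Antibodies were captured on anti-mouse Fc biosensors to 0.3-1 units, then exposed to hDPEP3-His for a 4 min association and a 3 min dissociation at 1000 rpm. A control mouse IgG response was subtracted, and KD was estimated qualitatively from the curves. Sensors were regenerated with 10 mM glycine, pH 1.7.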

mDPEP3 = biological target: T4, mDPEP3; experiment: ELISA, coated antigen
[3] = biological target: T1, rat DPEP3 ECD with histidine tag; experiment: ELISA, coated antigen
cDPEP3 = biological target: T5, cDPEP3; experiment: ELISA, coated antigen
[4] = biological target: T6, hDPEP2 ECD with histidine tag; experiment: ELISA, coated antigen

| binding result [1] | binding result (hDPEP1-His) | Kd (hDPEP3-ECD-His) | Binder | also measured |
| --- | --- | --- | --- | --- |
| no binding | no binding |  | hSC34.38 humanized anti-DPEP3 antibody (antibody, human IgG1, kappa, V domains shown, Human IgG1/kappa) VH: EVQLVQSGAEVKKPGESLKISCKGSGYSFTSYYMYWVRQMPGKGLEWMGEINPSNGGANFNERFKNQVTISADKSISTAYLQWSSLKASDTAMYYCTRGLLYYDYDRGFAYWGQGTLVTVSS VL: DVVMTQSPLSLPVTLGQPASISCKSSQSLLYSNRRTYLNWFQQRPGQSPRRLIYLVSKLDSGVPDRFSGSGSGTDFTLKISRVEAEDVGVYYCVQGTHFPFTFGQGTKLEIKR |  |
| no binding | no binding |  | hSC34.11 humanized anti-DPEP3 antibody (antibody, human IgG1, kappa, V domains shown, Human IgG1/kappa; The order is confirmed for hSC34.2 and hSC34.28) VH: EVQLVQSGAEVKKPGESLKISCKGSGYSFTNYWMIWVRQMPGKGLEWMGYIDPTTDYTAYNQKFKDQVTISADKSISTAYLQWSSLKASDTAMYYCARGGNVALDFWGQGTLVTVSS VL: DIQMTQSPSSLSASVGDRVTITCKSSQSLLNSRTRKNYLAWYQQKPGKVPKLLIYWASTRESGVPSRFSGSGSGTDFTLTISSLQPEDVATYYCKESYNLWTFGGGTKVEIKR |  |
|  |  | < 5 nM | SC34.46 (antibody, mouse IgG1, V domains shown) VH: QVQLQQSGTELARPGTSVKLSCKASGYTFRSYAISWVRQRTGQGLEWIGEIYPGSDKTYYNESLKGKVTLTTDKCSSTANMQLTSLTSEDSAVYFCARVHDYGSWFPYWGQGTLVTVSA VL: DIVMSQSPSSLAVSVGEKVTMSCKSSQSLLYSKYQKNFLAWYQQKPGQSPKLLIYWASTRESGVPDRFTGSGSGTDFTLTISNVKAEDLAVYYCQQYYRYPLTFGAGTTLELK | binding result [2]: binds |
|  |  | ≥ 5 nM and ≤ 10 nM | SC34.11 (antibody, mouse IgG2a, V domains shown) VH: QVQLQQSGAELAKPGASVKMSCKASGYTFTNYWMIWVKQRPGQGLEWIGYIDPTTDYTAYNQKFKDKATVTADKSSSTAYMQLNSLTSEDSAVYYCARGGNVALDFWGQGTSVTVSS VL: DIVMSQSPSSLAVSAGEKVTMSCKSSQSLLNSRTRKNYLAWYQQKPGQSPKLLIYWASTRESGVPDRFTGSGSGTDFTLTISSVQAEDLAVYYCKESYNLWTFGGGTKLEIK | binding result [2]: binds; binding result (mDPEP3): no binding (tested: 1 ug/mL); binding result [3]: no binding (tested: 1 ug/mL); binding result (cDPEP3): no binding (tested: 1 ug/mL) |
| no binding | no binding |  | hSC34.25 humanized anti-DPEP3 antibody (antibody, human IgG1, kappa, V domains shown, Human IgG1/kappa) VH: QVQLVQSGAEVKKPGASVKVSCKASGYTFTSYAISWVRQAPGQRLEWMGEIYPGSGETYYNEKFKGRVTITRDTSASTAYMELSSLRSEDTAVYYCARVNDYGSWFPYWGQGTLVTVSS VL: DIVMTQSPDSLAVSLGERATINCKSSQSLLYSRYQKNYVAWYQQKPGQPPKLLIYWASTRESGVPDRFSGSGSGTDFTLTISSLQAEDVAVYYCQQYYRYPLTFGQGTKLEIKR |  |
|  |  | > 10 nM | SC34.61 (antibody, mouse IgG1, V domains shown) VH: EVKLVESGGGLVKPGGSLKLSCAASGFTFTSYTMSWVRQTPAKRLEWVATISTGGGNTYYPDIVKGRFTISRDNARSTLYLQMSSLRSEDSAMYYCARRFYDGSYNYWYFDVWGAGTTVTVSS VL: DIQMIQSPSSMFASLGDRVSLSCRASQGIRGNLDWYQQKPGGTIKLLIYSTSNLNSGVPSRFSGSGSGSDYSLTISSLESEDFADYYCLQRDAYPYTFGGGTKLEIK | binding result [4]: no binding (tested: 1 ug/mL); binding result (mDPEP3): no binding (tested: 1 ug/mL); binding result [3]: no binding (tested: 1 ug/mL); binding result (cDPEP3): no binding (tested: 1 ug/mL) |
| no binding | no binding |  | hSC34.87 humanized anti-DPEP3 antibody (antibody, human IgG1, kappa, V domains shown, Human IgG1/kappa) VH: QVQLVQSGAEVKKPGASVKVSCKASGYTFTSYWMLWVRQAPGQRLEWMGYIDPRNGYTEYNQKFKDRVTITRDTSASTAYMELSSLRSEDTAVYYCARGGNVAMDYWGQGTLVTVSS VL: DIVMTQSPDSLAVSLGERATINCKSSQSLLNSRTRKNYLAWYQQKPGQPPKLLIYWASTRESGVPDRFSGSGSGTDFTLTISSLQAEDVAVYYCKQSYNLWTFGGGTKLEIKR |  |
| no binding | no binding |  | hSC34.28 humanized anti-DPEP3 antibody (antibody, human IgG1, kappa, V domains shown, Human IgG1/kappa) VH: QVQLVQSGAEVKKPGSSVKVSCKASGGTFSSYWIEWVRQAPGQGLEWMGEILPGSGNTYYNERFKDRVTITADESTSTAYMELSSLRSEDTAVYYCARRAAAYYSNPEWFAYWGQGTLVTVSS VL: EIVLTQSPATLSLSPGERATLSCTASSSVNSFYLHWYQQKPGLAPRLLIYSTSNLASGIPDRFSGSGSGTDFTLTISRLEPEDFAVYYCHQYHRSPYTFGQGTKLEIKR |  |
| no binding | no binding |  | hSC34.2 humanized anti-DPEP3 antibody (antibody, human IgG1, kappa, V domains shown, Human IgG1/kappa) VH: EVQLVQSGAEVKKPGESLKISCKGSGYSFTDYYINWVRQMPGKGLEWMGWTYPGSGPTKYNGKFRGQVTISADKSISTAYLQWSSLKASDTAMYYCARRGIYYYDGIYPNYFDYWGQGTTVTVSS VL: DIQMTQSPSSLSASVGDRVTITCSASQGITNYLNWYQQKPGKAPKLLIYYTSRLHSGVPSRFSGSGSGTDFTLTISSLQPEDFATYYCQQYSKLPWTFGQGTKVEIKR |  |

Reference: patent US20170029530A1 (AbbVie / Abbott, published 2017)
